The source of these data is paper PMC5376975, “Structural studies of RFCC tf18 reveal a novel chromatin recruitment role for Dcc1”.

The target in the series is T1, Dcc1 C-terminus WT (Saccharomyces cerevisiae, UniProt P25559 90-380).
T1 sequence: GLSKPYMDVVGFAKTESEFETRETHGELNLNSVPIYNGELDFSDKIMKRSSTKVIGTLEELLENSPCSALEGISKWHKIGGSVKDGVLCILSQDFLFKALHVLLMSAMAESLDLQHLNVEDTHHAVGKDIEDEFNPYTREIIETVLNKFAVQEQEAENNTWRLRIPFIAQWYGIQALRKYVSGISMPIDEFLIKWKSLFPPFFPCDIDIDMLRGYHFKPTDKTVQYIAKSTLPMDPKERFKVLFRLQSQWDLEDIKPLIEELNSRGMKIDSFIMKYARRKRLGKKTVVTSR
Description: EMSA; 1 uM DNA; EMSA, 6% native gel in 0.5x TBE, 4 C, DNA 1 uM unless stated; binding buffer, salt and pH not stated (protein storage 10 mM Tris pH 7.5, 150 mM NaCl, 0.5 mM TCEP for the complex). The conditions noted are these: protein: recombinant, tags: expressed by the complex protocol.

B1: 22-mer dsDNA (dsDNA)
DNA 1: TCTCCACAGGAAACGGAGGGGT
DNA 2: ACCCCTCCGTTTCCTGTGGAGA
B1: the binding result (label: 5' 6-FAM on sense strand) is recorded as “binds”.
For the molecule TTTTTTTTTTTTTTTTTTTTTTTTT (ssDNA) [25-mer oligo d(T)], where the note is “label: 5' 6-FAM”, the binding result is “binds”.
